Source: publication PMC4922050, “Stress-induced nuclear translocation of CDK5 suppresses neuronal death by downregulating ERK activation via VRK3 phosphorylation” (Scientific Reports, 2016)
Residue numbers refer to the chain shown, from its start.

Columns and labels:
Test in all cases: pull-down; GST-VRK3 (wild type, S108A, S108E) incubated overnight with recombinant VHR or recombinant phospho-ERK2 in Triton lysis buffer with 1 mM DTT and 10% glycerol, then glutathione-sepharose 4B beads at 4 °C for 1 h
Settings in all cases: both partners purified
[1] = biological target: T1, GST-tagged recombinant full-length VRK3 (vaccinia-related kinase 3), wild type (human, UniProt Q8IV63 1-474)
T1 construct: vaccinia-related kinase 3 (VRK3), human; coding region amplified by RT-PCR from mRNA of human cell lines and cloned into pGEX4T-3; full length (fragment F3 ends at amino acid 474); pGEX4T-3 vector; also called GST-VRK3; VRK3^WT; source: E. coli BL21 (DE3) pLysS, purified (glutathione-sepharose 4B)
T1 sequence (looked up): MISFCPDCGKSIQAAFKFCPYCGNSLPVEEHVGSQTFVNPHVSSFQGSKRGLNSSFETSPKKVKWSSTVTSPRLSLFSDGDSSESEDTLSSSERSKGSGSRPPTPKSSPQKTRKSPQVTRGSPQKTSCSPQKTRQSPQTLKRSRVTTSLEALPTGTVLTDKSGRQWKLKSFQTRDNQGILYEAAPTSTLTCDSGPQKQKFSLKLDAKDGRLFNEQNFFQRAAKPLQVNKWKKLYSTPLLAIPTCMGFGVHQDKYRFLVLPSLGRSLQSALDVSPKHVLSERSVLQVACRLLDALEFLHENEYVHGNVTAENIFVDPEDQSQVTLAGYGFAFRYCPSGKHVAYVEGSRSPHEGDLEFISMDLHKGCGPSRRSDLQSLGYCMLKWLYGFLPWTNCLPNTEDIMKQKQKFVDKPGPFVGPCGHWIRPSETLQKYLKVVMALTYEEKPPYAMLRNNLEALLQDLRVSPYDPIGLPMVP

GST-VRK3^S108A = biological target: T2, GST-VRK3^S108A (human, UniProt Q8IV63 1-474, S108A)
T2 construct: vaccinia-related kinase 3 (VRK3), human; S108A made by site-directed mutagenesis in pGEX4T-3; pGEX4T-3 vector; also called S108A mutant VRK3; source: E. coli BL21 (DE3) pLysS, purified (glutathione-sepharose 4B)
T2 sequence (looked up): T1 sequence (looked up) with S108A

GST-VRK3^S108E = biological target: T3, GST-VRK3^S108E (human, UniProt Q8IV63 1-474, S108E)
T3 construct: vaccinia-related kinase 3 (VRK3), human; S108E (phosphomimetic) made by site-directed mutagenesis in pGEX4T-3; pGEX4T-3 vector; also called S108E mutant VRK3; phosphomimetic mutant of VRK3; source: E. coli BL21 (DE3) pLysS, purified (glutathione-sepharose 4B)
T3 sequence (looked up): T1 sequence (looked up) with S108E

Measured: binding result

B1: recombinant VHR (vaccinia H1-related phosphatase) (enzyme, human, UniProt P51452 1-185, looked up)
chain: MSGSFELSVQDLNDLLSDGSGCYSLPSQPCNEVTPRIYVGNASVAQDIPKLQKLGITHVLNAAEGRSFMHVNTNANFYKDSGITYLGIKANDTQEFNLSAYFERAADFIDQALAQKNGRVLVHCREGYSRSPTLVIAYLMMRQKMDVKSALSIVRQNREIGPNDGFLAQLCQLNDRLAKEGKLKP
notes: vaccinia H1-related (VHR) phosphatase; coding region amplified by RT-PCR from mRNA of human cell lines (SH-SY5Y, HEK293A, HeLa); source: E. coli BL21 (DE3) pLysS, purified
binds: all assays above
